Results taken from patent US12441790B2, “Binding proteins to the human thrombin receptor, PAR4” (MONASH UNIVERSITY, priority 2017, dated 2025).

T1: PAR1 (Homo sapiens, UniProt P25116)
T1 construct: host or cells: patients in clinical trials
T1 sequence (P25116 22-425): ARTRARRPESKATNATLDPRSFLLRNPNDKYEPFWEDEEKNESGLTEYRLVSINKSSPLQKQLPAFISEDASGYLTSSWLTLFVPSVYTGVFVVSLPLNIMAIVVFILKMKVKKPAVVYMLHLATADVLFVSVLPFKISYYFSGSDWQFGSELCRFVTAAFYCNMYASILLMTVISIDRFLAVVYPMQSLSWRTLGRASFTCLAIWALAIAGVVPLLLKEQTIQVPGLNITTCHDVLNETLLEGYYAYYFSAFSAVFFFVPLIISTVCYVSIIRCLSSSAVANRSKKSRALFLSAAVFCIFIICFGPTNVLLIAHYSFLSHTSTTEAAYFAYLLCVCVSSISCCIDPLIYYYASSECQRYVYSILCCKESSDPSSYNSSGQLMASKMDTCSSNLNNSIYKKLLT

T2: human PAR4 containing an N-terminal FLAG tag (Homo sapiens, UniProt Q96RI0)
T2 construct: expressed in transfected cells; host or cells: HEK293 / HEK293T
T2 sequence (Q96RI0 18-385): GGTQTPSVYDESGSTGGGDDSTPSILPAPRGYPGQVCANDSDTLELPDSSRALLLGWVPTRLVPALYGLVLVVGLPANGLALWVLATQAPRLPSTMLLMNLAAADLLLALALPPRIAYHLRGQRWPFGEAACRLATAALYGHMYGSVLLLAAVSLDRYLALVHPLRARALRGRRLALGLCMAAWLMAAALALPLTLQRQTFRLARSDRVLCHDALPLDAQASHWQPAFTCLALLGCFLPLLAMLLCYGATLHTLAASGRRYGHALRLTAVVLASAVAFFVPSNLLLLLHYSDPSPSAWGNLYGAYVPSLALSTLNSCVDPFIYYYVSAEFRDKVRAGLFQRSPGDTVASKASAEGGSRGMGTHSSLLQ


Tests used:
PAR1 = molecular target: T1, PAR1; conditions: in combination with single or dual antiplatelet therapy; cited from earlier work
native PAR4 peptide = molecular target: T3, native PAR4 peptide (Homo sapiens, UniProt Q96RI0); test: ELISA screening of hybridoma supernatants, native vs KLH-linked PAR4 peptide; type: binding; conditions: first screening; clone; hybridoma supernatant
T3 construct: host or cells: synthetic peptide
Procedure: (§1) 96-well ELISA plates were coated with 50 μl of antigen diluted to a concentration of 4 μg/ml in coating buffer (0.1M Sodium Hydrogen Carbonate (NaHCO3) (Merck, #1.06329.0500)). Plates were incubated overnight at 4° C.
(§2) Wells were then washed with an automated plate washer (300 μl 1×PBS, 3 times). The wells were blocked with 200 μl of blocking buffer (3% BSA/1×PBS (BSA: (Sigma, #1001647742)) for 1 hour at room temperature followed by washing as above.
(§3) 50 μl of undiluted hybridoma cell culture supernatant was added into appropriate wells and incubated at room temperature for 1 hour followed by washing as above. […] Wells were washed as above. A set of substrate tablets (1×silver, 1×gold) into 20 ml of ddH20 by shaking vigorously on the thermomixer for 6 mins at room temperature. 50 μl of substrate ([…]™ p-Nitrophenyl phosphate Tablets (Sigma-Aldrich, N2770-50SET)) was added into each well and incubated for 20-25 mins at room temperature. 50 μl of STOP solution (2M Sodium Hydroxide, Solid (NaOH) (Merck, Cas #1310-73-2)) was added into each well to stop the reaction. Absorbance was read at 405 nm immediately after adding STOP solution with the ELISA reader, using the ‘RdrOle4’ software.

[1] = molecular target: T2, human PAR4 containing an N-terminal FLAG tag; test: PAR4 thrombin cleavage assay, FLAG-tagged PAR4 on HEK293 cells, flow cytometry; type: cell-based
Procedure: 1×10^6 HEK293T cells (in Dulbecco's modified eagle's medium+10% foetal calf serum) were seeded onto 12-well plates 24 hours before transfection. When confluent, they were transiently transfected with 1 μg of DNA from one of the PAR4 variants (expression vectors pBJ-FLAG-PAR4-120A-296F or pBJ-FLAG-PAR4-120T-296F; Edelstein et al (2014) Blood 124(23):3450-8) plus 4 μL of Lipofectamine 2000, as per manufacturer's instructions. Forty-eight hours after transfection, cells were harvested and washed twice with PBS, then resuspended to a count of 1×10^6/mL. Cells (50 μL assays/0.5×10^5 cells per condition) were then pre-treated with either 1, 10 or 100 μg/mL of 5RC3 or sub-clone 5A.RC3.F10b.H4b or 100 μg/mL matched Isotype control (mouse IgG1) for 15 minutes at 37° C. Cells were then stimulated with 2 U/mL of thrombin for 10 minutes. The reaction was stopped by the addition of 4 U/mL hirudin. Cells were then washed once and resuspended with PBS containing a 1:200 dilution of FITC anti-FLAG antibody (Sigma, clone M2) and incubated for 1 hour at room temperature in the dark. Cells were then fixed with 1% paraformaldehyde (final concentration) and read on a FACSCalibur flow cytometer to determine % of FL1/FITC-Positive events. Data were normalised against the resting sample (100%, no thrombin treatment).
Monoclonal antibody hybridoma supernatants (MoB5ARC3, MoB5BRB4, MoB5BRC6, MoB5BRH3 and MoB5CRC4) were screened for their ability to […] intact PAR4 present on the surface of HEK293 cells transfected with human PAR4 containing an N-terminal FLAG tag.
[…] Cleavage of PAR4 by thrombin was measured by loss of FLAG tag from the PAR4 expression HEK293T cells using flow cytometry.

hPAR4 peptide [2] = molecular target: T4, hPAR4 peptide (Homo sapiens, UniProt Q96RI0); test: ELISA of purified mAbs on hPAR4 peptide; type: binding; conditions: dilutions of purified mAbs
T4 construct: host or cells: synthetic peptide
Procedure: (§4) The kinetics of the binding interaction between the mAbs and hPAR4 was measured using Surface Plasmon Resonance (SPR; Biacore) by two different methods: 1. Anti-mouse Fc mAb capture method and 2. Streptavidin (SA) chip to capture biotinylated peptide. The ka(on) rate and kd(off) rates and KD were measured and fitted to a Langmuir model using the Biacore evaluation software.
The experiment was completed with purified mAbs diluted in PBS instead of hybridoma supernatants.
The reactivity of seven purified anti-hPAR4 mAbs was analysed by ELISA (see Table 4).

hPAR4 peptide [3] = molecular target: T4, hPAR4 peptide; test: mAb capture SPR (Biacore, anti-mouse Fc capture); type: binding
Procedure: (§5) Biacore analysis was performed on a Biacore T200 using two different methods either an anti-mouse Fc capture approach or using a similar method as described above using the ProteoOn system.
A series S CM5 sensor chip was activated with standard EDC/NHS amine coupling chemistry using the manufacturers recommended protocol with Goat anti-mouse IgG Fc. Anti-hPAR4 mAbs were captured at 1-2 ug/ml for 2 minutes at 10 ul/minute on flow cell 2 (FC2) and flow cell 1 (FC1) was used as a reference channel. […] Blank injections of buffer alone were also performed. All injections were performed in duplicate and in a random order. After each capture/injection/dissociation cycle the chip was regenerated with a 30 second injection of 0.1M Glycine pH2.0.
(§6) For the mAb capture method low levels of ligand mAb and analyte hPAR4 were used in an attempt to produce a 1:1 binding interaction, this method has been used successfully to measure kinetics and affinity KD's (Kamat V and Rafique A (2017) Analytical Biochemistry 530:75-86), despite using a whole IgG.
as §4

[4] = molecular target: T5, hPAR4-biotinylated peptide (Homo sapiens, UniProt Q96RI0); test: SA chip biotin peptide SPR (Biacore, streptavidin capture); type: binding
T5 construct: host or cells: synthetic peptide
Procedure: as §5
A series S sensor chip SA was conditioned using the manufacturers recommended protocol and immobilised with 1 ug/ml hPAR4-biotinylated peptide on FC2 and hPAR1-biotinylated peptide as a control onto FC1. […] Blank injections of buffer alone were also performed. All injections were performed in duplicate and in a random order. After each capture/injection/dissociation cycle the chip was regenerated with a 30 second injection of 0.1M Glycine pH2.0.
as §6, §4

PAR2 = molecular target: T6, PAR2 (Homo sapiens, UniProt P55085); test: ELISA binding ratio to PAR2; conditions: second screening
T6 construct: host or cells: synthetic peptide
Procedure: as §1, §2, §3

human platelets = test: Functional screen of hybridoma supernatants by platelet aggregation assay; type: cell-based; conditions: aggregation as % of control
Procedure: Platelet aggregation was measured by light transmission aggregometry in a 96-well plate format. Human isolated platelets (2×10^8/ml) were pre-treated for 10 mins at 37° C. with dimethylsulfoxide (DMSO) (1% v/v), the PAR1 antagonist vorapaxar (90 nM), the anti-PAR4 antibody 5RC3 (20-100 μg/ml), or a combination of vorapaxar and 5RC3. Platelets were treated with one of thrombin (0.1 U/ml) and aggregation was analysed at 37° C. in a FLUOstar OPTIMA plate reader (BMG Labtech) using a 595 nm excitation filter, for a period of 50 min (10 read cycles with 5 min double orbital shake period between each read). Optical density was normalised against the blank (maximum) and unstimulated platelets (minimum) and expressed as % maximum.
Thrombin-induced platelet aggregation in the presence of a PAR1 antagonist (i.e. PAR4-dependent aggregation) is shown for 30 monoclonal antibody supernatants binding to human platelets. Antibody supernatant was mixed with human platelets (2×10^8 cells) at a 1:1 ratio.

T5 sequence (Q96RI0 with tags, fused parts or gaps limits assumed): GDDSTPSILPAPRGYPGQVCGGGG
T6 sequence (P55085 with tags, fused parts or gaps limits assumed): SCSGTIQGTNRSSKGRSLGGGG

Row | Molecule | reactivity with hPAR4 peptide by ELISA (hPAR4 peptide [2]) | ka (hPAR4 peptide [3]) [M⁻¹ s⁻¹] | kd (hPAR4 peptide [3]) [s⁻¹] | ka [4] [M⁻¹ s⁻¹] | kd [4] [s⁻¹] | Binding to PAR2 ratio (PAR2) | Functional screen on hybridoma supernatants (human platelets) | also measured
1 | CCOC(=O)N[C@@H]1CC[C@@H]2[C@@H](C1)C[C@H]1C(=O)O[C@H](C)[C@H]1[C@H]2/C=C/c1ccc(-c2cccc(F)c2)cn1 [vorapaxar] | – | – | – | – | – | – | – | intracranial bleeding (PAR1): significantly increased rates of intracranial bleeding
2 | MoB5AR C3: parent hybridoma clone (supernatant) from which 5A.RC3.F10b.H4b was sub-cloned (antibody, V domains shown, VH of 5A.RC3; VL of 5A.RC3, parent hybridoma clone (supernatant) from which 5A.RC3.F10b.H4b was sub-cloned) VH: QVQLVESGGGVVQPGRSLRLSCAASGFTLSNYGMHWVRQAPGKGLEWVSVIWYDGSNKHYADSVKGRFTISRDNSKNTLYLQMNSLRAEDTAVYYCARESIVEVLPPFDYWGQGTLVTVSS VL: KIVLTQSPGTLSLSPGERVTLSCRASQRVRNNYLAWFQQKPGQAPRLFIYGASSRATGIPDRFSGSGSGTDFIFTISRLEPEDFAVYYCQQYGNSYTFGQGTKLEIK | – | – | – | – | – | – | – | Fold binding native vs KLH-linked PAR4 peptide (native PAR4 peptide): 19.9; Functional screen on hybridoma supernatants that exhibited binding ([1]; % of uncleaved PAR4 peptide expressed on HEK293 cells): Yes (Hybridoma supernatants that demonstrated greater than 70% of uncleaved PAR4 were considered positive); blocked thrombin-induced cleavage of PAR4 ([1]; initial screen of hybridoma supernatants, thrombin 2 U/ml for 10 mins): at least 90%; block of thrombin-induced cleavage of PAR4 ([1]; initial screen, thrombin 2 U/ml for 10 mins): almost completely blocked thrombin-induced cleavage of PAR4
3 | 5I.RG1: anti-PAR4 monoclonal antibody, IgG3/K, SEQ ID NOs 45 and 46 (antibody, V domains shown, VH of 5I.RG1; VL of 5I.RG1) VH: QVQLQQWGAGLLKPSETLSLACAISSGSFSTYFWRWIRQPPGKGLEWIGEIIHTGSTTYNPSLKSRVTISVDTSKNQLSLKLSSVTAADTAVYYCAFEYSSSGGYYYGMDVWGQGTTVTVSS VL: DIQMTQSPSSLSASVGDRVTITCRASQSISSYLNWYQQIPGKAPNLLIYAASSLRSGVPSRFSGSGSGTDFTLTISSLQPEDFATYYCQQTYSTPLTFGGGTKVEIK | least reactive | 14000 | 0.00146 | 1.85e+06 | 0.000667 | – | – | –
4 | MoB5G G1: hybridoma supernatant clone, second screening; likely parent of 5G.RG1 (antibody, V domains shown) VH: QVQLVESGGGVVQPGRSLRLSCVASGFTLSSYGMHWVRQAPGKGLEWVAVIWYDGSSKYYTDSVKGRFDISRDNSKNTLYLQMNILRAEDTAVYYCARETILIGGVPFDYWGQGTLVTVSS VL: EIVLTQSPGTLSLSPGERATLSCGASQSIRSNYLAWYQQKPGQAPRLLIYGASSRATGTPDRFSGSGSGTDFTLTITRLEPEDFALYYCQQYGRSYTFGQGTKLEIK | – | – | – | – | – | 1.0 | Yes (+++) (aggregation <25% of control) | –
5 | 5H.RF2: anti-PAR4 monoclonal antibody, IgG2a/K, SEQ ID NOs 107 and 108 (antibody, V domains shown, VH of 5H.RF2; VL of 5H.RF2) VH: QVQLQQWGAGLLKPSETLALTCAVYGGSLSDYYWSWIRQPPGKGLEWIGEINHSGTTNYNPSLKSRVTISVDTSKKQFSLKLSSVTAADTAVYYCAIEYSNSRGYYYGMDVWGQGTTVTVSS VL: DIQMTQSPSSLSASAGDRITITCRASQTISNYLNWYQQKPGKAPKLLIYAASSLQSGVPSRFSGSGSGTDFTLTISSLQPEDFASYYCRQNYNTPLTFGGGTKVEIK | least reactive | 58400 | 0.00227 | 1.84e+06 | 0.00111 | – | – | –
6 | MoB5F E6: hybridoma supernatant clone, second screening; likely parent of 5F.RE6 (antibody, V domains shown) VH: QVQLAESGGGVVQPGRSLRVSCAASGFTFSSYGMHWVRQAPGKGLEWVAVIWYDGTKKYYADSLKGRFTISRDNSKYTLYLQMNSLRADDTALYFCARKGARGITGLDYWGQGTLVTVSS VL: DIQMTQSPSSLSASAGDRITITCRASQSISNYLNWYQQKPGKAPKLLIYAASSLQSGVPSRFSGSGSGTDFTLTISSLQPEDFASYYCRQNYNTPLTFGGGTKVEIK | – | – | – | – | – | 1.3 | Yes (+) (aggregation between 50-80% of control) | –
